Experimental data published in FireProtDB (doi:10.1021/bi035651x).
“And” between values parts separate entries of the source, which are not always exact repeats. Identical values can stand only once.

B1: Adenosine deaminase, P03958 (parent)
chain: MAQTPAFNKPKVELHVHLDGAIKPETILYFGKKRGIALPADTVEELRNIIGMDKPLSLPGFLAKFDYYMPVIAGCREAIKRIAYEFVEMKAKEGVVYVEVRYSPHLLANSKVDPMPWNQTEGDVTPDDVVDLVNQGLQEGEQAFGIKVRSILCCMRHQPSWSLEVLELCKKYNQKTVVAMDLAGDETIEGSSLFPGHVEAYEGAVKNGIHRTVHAGEVGSPEVVREAVDILKTERVGHGYHTIEDEALYNRLLKENMHFEVCPWSSYLTGAWDPKTTHAVVRFKNDKANYSLNTDDPLIFKSTLDTDYQMTKKDMGFTEEEFKRLNINAAKSSFLPEEEKKELLERLYREYQ

Variants of: B1
Conditions: Mus musculus; pH 7.4; 20 °C; Urea; NMR; Tris-HCl 20 mM; structure 2ADA; whole UniProt chain shown

Variant	ddG of mutation (higher = less stable)	denaturant m value	denaturant midpoint (higher = more stable)	unfolding free energy
MAQTPAFNKPKVELHVHLDGAIKPETILYFGKKRGIALPADTVEELRNIIGMDKPLSLPGFLAKFDYYMPVIAGCREAIKRIAYEFVEMKAKEGVVYVEVRYSPHLLANSKVDPMPWNQTEGDVTPDDVVDLVNQGLQEGEQAFGIKVRSILCCMRHQPSFSLEVLELCKKYNQKTVVAMDLAGDETIEGSSLFPGHVEAYEGAVKNGIHRTVHAGEVGSPEVVREAVDILKTERVGHGYHTIEDEALYNRLLKENMHFEVCPWSSYLTGAWDPKTTHAVVRFKNDKANYSLNTDDPLIFKSTLDTDYQMTKKDMGFTEEEFKRLNINAAKSSFLPEEEKKELLERLYREYQ [W161F]	-36.4 kJ/mol and -25 kJ/mol	2.48 kcal/mol/M and 1.87 kcal/mol/M	5.3 M and 5.57 M	55 kJ/mol and 43.6 kJ/mol
MAQTPAFNKPKVELHVHLDGAIKPETILYFGKKRGIALPADTVEELRNIIGMDKPLSLPGFLAKFDYYMPVIAGCREAIKRIAYEFVEMKAKEGVVYVEVRYSPHLLANSKVDPMPWNQTEGDVTPDDVVDLVNQGLQEGEQAFGIKVRSILCCMRHQPSWSLEVLELCKKYNQKTVVAMDLAGDETIEGSSLFPGHVEAYEGAVKNGIHRTVHAGEVGSPEVVREAVDILKTERVGHGYHTIEDEALYNRLLKENMHFEVCPWSSYLTGAFDPKTTHAVVRFKNDKANYSLNTDDPLIFKSTLDTDYQMTKKDMGFTEEEFKRLNINAAKSSFLPEEEKKELLERLYREYQ [W272F]		1.05 kcal/mol/M and 2.25 kcal/mol/M	5.42 M and 5.58 M	23.8 kJ/mol and 52.5 kJ/mol
MAQTPAFNKPKVELHVHLDGAIKPETILYFGKKRGIALPADTVEELRNIIGMDKPLSLPGFLAKFDYYMPVIAGCREAIKRIAYEFVEMKAKEGVVYVEVRYSPHLLANSKVDPMPFNQTEGDVTPDDVVDLVNQGLQEGEQAFGIKVRSILCCMRHQPSWSLEVLELCKKYNQKTVVAMDLAGDETIEGSSLFPGHVEAYEGAVKNGIHRTVHAGEVGSPEVVREAVDILKTERVGHGYHTIEDEALYNRLLKENMHFEVCPWSSYLTGAWDPKTTHAVVRFKNDKANYSLNTDDPLIFKSTLDTDYQMTKKDMGFTEEEFKRLNINAAKSSFLPEEEKKELLERLYREYQ [W117F]	-12.4 kJ/mol and -27.3 kJ/mol	1.31 kcal/mol/M and 1.96 kcal/mol/M	5.65 M and 5.59 M	31 kJ/mol and 45.9 kJ/mol
